The target in the experiment is T1, human Claudin18.2 on cells (human, UniProt P56856-2 1-261).
T1 construct: whole, on cells; also called CLDN18.2; hCLDN18.2
As to the kind of experiment: flow cytometry on DANG-hCLDN18.2 cells, relative MFI (fold).

The results in this text go back to US20250073347A1 (FORTVITA BIOLOGICS SINGAPORE PTE, published 2025).

Protocol: The cells were centrifuged at 500 g for 5 min, and the cell medium was removed. […] The suspension was left to stand on ice for 30 min. The suspension was centrifuged at 500 g for 5 min, the supernatant was removed, and the cells were washed once with PBS. The goat anti-human Fc PE-labeled secondary antibody (SouthemBiotech, J2815-5H87B) was added at 100 µL/well. The resulting mixture was incubated on ice in the dark for 30 min. The mixture was centrifuged at 500 g for 5 min, the supernatant was removed, and the cells were washed once with PBS. The cells were resuspended in 50 μL of 1×PBS, and the suspension was loaded for FACS assay.

B1: IEX019-02 (HB37A6-SYNtecan E conjugate) (antibody, human IgG1, kappa, V domains shown)
VH: EVQLLDSGGGLVQPGGSLRLSCAASGFTFSSYVMSWVRQAPGKGLNWVSTISHSGGSTYYADSVKGRFTISRDNSKNTLYLQMNSLRAEDTAVYYCAIDAPYYDILTGYRYWGQGTLVTVSS
VL: not shown
modifications: GlcNAc(Fuc)-6-N3-GalNAc at Asn297 conjugated to linker-payload compound 1 (cleavable linker, 2 exatecan); average DAR 3.52
notes: also called SYN-HB37A6-Ex
On to B1, for which the binding result is “binds”.
